The values that follow come from patent US20240239907A1 (EDELWEISS IMMUNE, published 2024).

For assay [1], the target named is T1, human CXCR6 (human, UniProt O00574 1-342).
T1 construct: also called hu-CXCR6; wild type human CXCR6
Kind of assay: description of the chimeric clones used in the ADCC example.

The target of assay [2] is T1, human CXCR6. Description: screening on cells overexpressing CXCR6, one single concentration, yes/no.
For assay [3], the target named is T2, cynomolgus monkey CXCR6 (cynomolgus monkey, UniProt Q9BDS6 1-343).
T2 construct: also called cyno-CXCR6; cyno monkey CXCR6
T2 sequence: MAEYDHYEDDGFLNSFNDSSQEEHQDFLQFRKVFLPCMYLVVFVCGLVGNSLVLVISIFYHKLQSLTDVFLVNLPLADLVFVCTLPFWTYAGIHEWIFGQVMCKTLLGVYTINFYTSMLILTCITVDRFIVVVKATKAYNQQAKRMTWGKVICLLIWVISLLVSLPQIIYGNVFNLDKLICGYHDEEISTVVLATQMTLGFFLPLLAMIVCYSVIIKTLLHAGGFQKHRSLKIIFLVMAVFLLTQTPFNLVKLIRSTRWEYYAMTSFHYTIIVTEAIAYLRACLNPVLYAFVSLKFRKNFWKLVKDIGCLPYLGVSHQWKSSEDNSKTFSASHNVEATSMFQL
The description is as above.

The target in assay [4] is T3, N-terminal fusion protein linking the extracellular N terminus of human CXCR6 and the Fc region of human IgG1 (human, not fully specified).
T3 construct: not shown: Fc region of human IgG1
T3 chain: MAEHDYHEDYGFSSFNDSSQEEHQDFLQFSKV
Kind of assay: antibody pre-incubated with N-terminus-Fc fusion before staining human CXCR6 cells, flow cytometry (FIG. 12B). How it is done: Three candidate antibodies that bind only to human CXCR6 and three candidate antibodies that bind to both human and cyno CXCR6 were further analyzed to locate their epitope residues. An N-terminal fusion protein was generated by linking the extracellular N terminus of human CXCR6 and the Fc region of human IgG1. Prior to staining cells over-expressing human CXCR6, the candidate antibodies (1 μg/ml) were pre-incubated with the N-terminal fusion protein (25 μg/ml) for 15 minutes at room temperature. A commercial antibody (R&D system, Minneapolis, MN) that only binds to human CXCR6 but not cyno- or mouse-CXCR6, was used as a control antibody.
(In general: In flow cytometry, cells or beads pass a laser one at a time.)

Assay [5] deals with T2, cynomolgus monkey CXCR6. Kind of assay: description of the chimeric clones used in the ADCC example.
Assay [6] concerns the target T1, human CXCR6. Kind of assay: flow cytometry on human CXCR6 over-expressing cells, no huCXCL-16 (FIG. 16). As to the method:
(§1) After washing and staining with secondary antibody, cells were analyzed by flow cytometry. The ED₅₀ for huCXCL-16 binding to human CXCR6 is 10-50 ng/ml. Thus, 1,500 ng/ml huCXCL-16 is an overwhelming concentration for competing with chimeric Genovac2-C1. In the absence of huCXCL-16, the ED₅₀ for chimeric Genovac2-C1 binding to human CXCR6 was 0.5 μg/ml (FIG. 16). In the presence of huCXCL-16 (1,500 ng/ml), the ED₅₀ for chimeric Genovac2-C1 binding to human CXCR6 was 1.5 μg/ml (FIG. 16). Accordingly, the human/mouse chimeric mAb retains the binding specificity and affinity in the presence of CXCL-16.

For assay [7], the target named is T1, human CXCR6. Kind of assay: flow cytometry on human CXCR6 over-expressing cells pre-incubated with competitor huCXCL-16 at 1,500 ng/ml (FIG. 16). How it is done: as §1
Assay [8] addresses T2, cynomolgus monkey CXCR6. Kind of assay: flow cytometry on cells overexpressing CXCR6, serial dilutions of antibody (FIG. 11). How it is done:
Wild type C57BL/6 mice were immunized and boosted with a full-length human CXCR6-vector. Prior to immunization, the vector was tested for cell surface expression of native human CXCR6 on transfected mammalian cell lines by flow cytometry to ensure a successful immunization and screening. Genetic immunization was performed by ballistically delivering DNA-coated gold particles into the skin of wild type C57BL/6 mice to elicit a target-specific immune response. After the serum test showing satisfactory titer of antibody binding to both human CXCR6 and cyno monkey CXCR6, mice were sacrificed. A single B cell platform was used to sequentially screen bone marrow antibody-producing plasma cells for binding to both human and cyno monkey CXCR6. The conventional hybridoma technique was used on splenocytes and lymph node cells. […] After sequencing the VH and VL, clones with distinct CDRs were further expressed as full-length murine antibodies or human chimeric antibodies. […]
Cells overexpressing human-CXCR6 (hu-CXCR6), cyno monkey CXCR6 (cyno-CXCR6) or mouse CXCR6 were cultured in DMEM medium containing 10% FCS. […] After two rounds of washing with PBS/0.5% BSA buffer, cells were further stained with fluorescence dye-labeled secondary antibody. After two more rounds of washing, cells were resuspended in PBS/0.5% BSA, fixed, and collected by flow cytometry and analyzed.

T1 sequence (O00574 whole entry): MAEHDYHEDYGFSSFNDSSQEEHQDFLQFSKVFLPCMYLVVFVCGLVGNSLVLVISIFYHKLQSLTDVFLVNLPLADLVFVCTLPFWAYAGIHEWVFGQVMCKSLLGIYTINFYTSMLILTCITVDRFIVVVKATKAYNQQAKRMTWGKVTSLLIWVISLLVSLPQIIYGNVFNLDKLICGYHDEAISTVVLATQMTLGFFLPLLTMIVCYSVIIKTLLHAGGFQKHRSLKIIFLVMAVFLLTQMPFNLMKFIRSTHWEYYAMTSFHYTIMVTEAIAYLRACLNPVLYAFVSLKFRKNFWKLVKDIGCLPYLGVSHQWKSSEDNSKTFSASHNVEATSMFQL

B1: chimeric COXs-1B10 (antibody, V domains shown)
VH: QVTLKESGPGILKASQTLSLTCSFSGFSLSTSGMGIGWIRQPSGKGPEWLAHIWWDDEKYYRPSLKSRLTVSKDTSRNQVFLNITSVDTTDSASYYCVQRTPGRFAYWGQGTLVTVST
VL: DIVMTQSPSSLAVSIGQKVIMSCKSSQSLLSSRTQKNYLAWYQQKPGQSPKLLVYFASIRESGVPDRFTGSGSGTDFTLTISTVQAEDLAVYYCQQYFLTPYTFGGGTKLEIK
notes: also called COXs-1B10 human chimeric mAb
For B1, in the assay with human CXCR6 [1], the binding result was “binds”.

B2: Beacon2-G5 (antibody, V domains shown)
VH: EVQLVESGGDLVKPGGSLKLSCAASGFTFSSYGMSWVRQTPDKRLEWVATISSRGSYTYYPDSVKGRLTISRENAKNTLSLQMSSLKSEDTAMYYCARRVFPYWFFDVWGAGTTVTVSS
VL: DIVMTQSHKFMSTSVGDRVSITCKASQDVSTAVAWYQQKSGQSPKLLIYSASYRYTGVPDRFTGSGSGTDFTFTISSVQAEDLAVYYCQQHYTTPYTFGGGTKLEIK
notes: Mouse-derived
With B2, the results for the binding result (with human CXCR6 [2]; in the assay with cynomolgus monkey CXCR6 [3]; in assay [4]) were “binds”, “binds” and “no binding”, respectively.

B3: Genovac1-G2 human/mouse chimeric antibody with human IgG1 Fc (antibody, V domains shown)
VH: DVQLQESGPGLVKPSQSLSLTCSVTGYSITSGYYWNWIRQFPGNKLEWMGYIRYDGSNNYNPSLKNRISITRDTSKNQFFLKLNSVTTEDTATYYCARDGYSTYFDYWGQGTTLTVSS
VL: DIQMTQSPASLSASVGETVTITCRASENIYSYLAWYQQKQGKSPQLLVYNAKTLAEGVPSRFSGSGSGTQFSLKINSLQPEDFGSYYCQHHYGTPWTFGGGTKLEIK
For B3, the binding result with human CXCR6 [1] and with cynomolgus monkey CXCR6 [5] was “binds” in each case.

B4: chimeric Genovac2-C1 (antibody, V domains shown)
VH: DVKLVESGGGLVKPGGSLKLSCAASGFTFSSYTMSWVRQTPEKRLEWVATISSGGSYTYYPDSVKGRFTISRDNAKNTLYLQMSSLKSEDTAMYYCTRGGGNYPFWFFDVWGAGTTVTVSS
VL: DIQMTQSPASLSASVGETVTITCRASENIYSYLAWYQQKQGKSPQLLVYNAKTLAEGVPSRFSGSGSGTQFSLKIKSLQPEDFGSYYCQHHYGIPRTFGGGTKVETK
notes: also called Genovac2-C1 human chimeric mAb; human/mouse chimeric mAb
As to B4, the binding result with cynomolgus monkey CXCR6 [5] is reported as “binds”. Also, the EC50 with human CXCR6 [6] is 0.5 µg/mL; with human CXCR6 [7] it was 1.5 µg/mL.

B5: Genovac2-C1 (antibody, V domains shown)
VH: DVKLVESGGGLVKPGGSLKLSCAASGFTFSSYTMSWVRQTPEKRLEWVATISSGGSYTYYPDSVKGRFTISRDNAKNTLYLQMSSLKSEDTAMYYCTRGGGNYPFWFFDVWGAGTTVTVSS
VL: DIQMTQSPASLSASVGETVTITCRASENIYSYLAWYQQKQGKSPQLLVYNAKTLAEGVPSRFSGSGSGTQFSLKIKSLQPEDFGSYYCQHHYGIPRTFGGGTKVETK
notes: Mouse antibody
As to B5, the binding result in the assay with cynomolgus monkey CXCR6 [8] is reported as “binds”.

B6: Genovac1-G2 (antibody, V domains shown)
VH: DVQLQESGPGLVKPSQSLSLTCSVTGYSITSGYYWNWIRQFPGNKLEWMGYIRYDGSNNYNPSLKNRISITRDTSKNQFFLKLNSVTTEDTATYYCARDGYSTYFDYWGQGTTLTVSS
VL: DIQMTQSPASLSASVGETVTITCRASENIYSYLAWYQQKQGKSPQLLVYNAKTLAEGVPSRFSGSGSGTQFSLKINSLQPEDFGSYYCQHHYGTPWTFGGGTKLEIK
notes: Mouse-derived
Turning to B6, the binding result in the assay with human CXCR6 [2] and with cynomolgus monkey CXCR6 [8] was “binds” in each case.

The term EC50 denotes the concentration giving half of the maximal effect.
